# Experimental data published in US20040186056A1 (SANFORD BURNHAM MEDICAL RESEARCH INSTITUTE, published 2004).
# Key:
# [1] = biological target: T1, cell surface nucleolin on intact tumor cells (MDA-MB-435, HL-60) (human, UniProt P19338 2-710); assay: phage binding to tumor cells, pfu count; the filing names nucleolin as the receptor only later
# T1 construct: Native nucleolin on human tumor cell lines; also called cell surface-expressed nucleolin
# Text: Phage displaying a set of sequences corresponding to fragments of the amino-terminal portion of HMGN2 (SEQ ID NO: 5) were constructed to localize the region responsible for cell binding and in vivo homing. Fragments were designed to follow the exon/intron boundaries of the HMGN2 gene. Inserts encoding the indicated fragments were amplified from the full length HMGN2 phage clone by PCR, purified, digested and directionally cloned into the T7 415-1 and 10-3 vectors. Phage were packaged, amplified and sequenced according to the manufacturer's instructions. Phage preparations were then tested for binding to primary cells obtained from HL-60 xenograft tumors. After a 1 hour incubation at 4° C., cells were washed, and bound phage quantified. […] Furthermore, phage displaying the N-terminal portion of the active fragment SEQ ID NO: 9, which corresponds to exon 3 of the HMGN2 gene, were prepared. These phage expressing the sequence […] (SEQ ID NO: 11) bound to tumor cells 90-fold more than non-recombinant phage.
# The phage binding assay was performed essentially as follows. Attachment of phage to cells was quantified by incubating 1×10⁸ pfu of phage displaying SEQ ID NO: 9 for 60 minutes with 1×10⁶ HL-60 cells at 4° C. in Tris-buffered saline with 1 mM Ca⁺² and 1 mM MgCl₂. […] Bound phage were quantified by plating and counting pfu.
# [2] = biological target: T2, nucleolin (110-kDa protein of MDA-MB-435 cells, in cell extracts and inside cells) (human, UniProt P19338 2-710); assay: affinity chromatography of MDA-MB-435 cell extract on peptide matrix, SDS gel, mass spectrometry
# T2 construct: also called 110 kDa band; full-length nucleolin
# Procedure: 276:48588-48595 (2001). Briefly, 6×10⁸ MDA-MB-435 cells grown in RPMI 1640 medium with 10% fetal calf serum were pelleted and lysed in 60 ml of RIPA buffer (1% Triton X-100, 0.5% deoxycholic acid, 0.1% SDS, 10 mM Tris-HCl pH 7.6, 150 mM NaCl, and 1% Protease Inhibitor Cocktail for Mammalian Cells; SIGMA). […] Matrix beads were washed three times with IP-wash buffer (0.025% Triton X-100, 50 mM Tris-HCl pH 8.4, 150 mM NaCl, 1 mM CaCl₂, and 0.02% azide), two times with 25 mM Tris-HCl pH 8.4/250 mM NaCl, and eluted with 30 μl of SDS gel sample buffer. Affinity-purified proteins were reduced with 50 mM DTT before being separated on an 8-20% polyacrylamide gel and visualized by Colloidal Blue staining (Invitrogen; Carlsbad, Calif.). Bands that appeared in the peptide SEQ ID NO: 9 eluate, but not in control eluate, were cut out, digested with trypsin and analyzed by mass spectroscopy using matrix-assisted laser desorption ionization-time of flight analysis (Voyager DE-PRO, Applied Biosystems; Foster City, Calif.). Peptide samples were prepared using an alpha-cyano-4-hydroxycinnamic acid (HCCA)/nitrocellulose matrix.
# T2 sequence (P19338 other isoform, or with tags, fused parts or gaps limits assumed): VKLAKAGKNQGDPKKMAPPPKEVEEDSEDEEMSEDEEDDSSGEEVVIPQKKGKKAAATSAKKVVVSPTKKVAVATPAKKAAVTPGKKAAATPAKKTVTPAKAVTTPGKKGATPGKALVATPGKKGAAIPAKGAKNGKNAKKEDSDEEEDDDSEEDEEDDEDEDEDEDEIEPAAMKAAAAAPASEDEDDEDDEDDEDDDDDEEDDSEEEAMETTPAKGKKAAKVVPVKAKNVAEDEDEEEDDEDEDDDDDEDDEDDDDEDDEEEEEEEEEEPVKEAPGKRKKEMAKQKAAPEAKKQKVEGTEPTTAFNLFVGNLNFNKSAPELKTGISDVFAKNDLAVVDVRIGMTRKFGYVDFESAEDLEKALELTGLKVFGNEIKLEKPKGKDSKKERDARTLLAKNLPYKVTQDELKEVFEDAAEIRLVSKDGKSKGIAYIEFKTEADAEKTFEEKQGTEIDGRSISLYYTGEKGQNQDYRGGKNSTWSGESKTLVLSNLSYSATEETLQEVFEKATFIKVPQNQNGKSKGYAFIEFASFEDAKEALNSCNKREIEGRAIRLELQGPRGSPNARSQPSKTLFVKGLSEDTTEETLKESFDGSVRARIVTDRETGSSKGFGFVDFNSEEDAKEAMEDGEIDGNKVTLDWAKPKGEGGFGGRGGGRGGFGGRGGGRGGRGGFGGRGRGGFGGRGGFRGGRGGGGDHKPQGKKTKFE
# T1 sequence (P19338 other isoform, or with tags, fused parts or gaps limits assumed): as above
Binder,fold binding over non-recombinant phage [1],binding result [2]
"PQRRSARLSA (other, not shown: T7 phage coat protein fusion partner) [phage expressing the HMGN2 exon 3 sequence PQRRSARLSA (SEQ ID NO: 11)]",90 fold,
APKDKPAAVKERKKPAPKPRPQELRSKKAKPAPAS (also called control matrix) [control peptide APKDKPAAVKERKKPAPKPRPQELRSKKAKPAPAS (SEQ ID NO:20)],,no binding
